Source: the supplement of paper PMC9170038

System: K4 kissing-loop RNA reporter
Assay: apparent KD of K4 kissing-loop reporter; higher = weaker reporter binding
Conditions: Eterna round: R107
Description: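 RNA-MaP round R107: designed RNA switches with theophylline, tryptophan, arginine or FMN aptamers are transcribed on-chip within common flanks. They are titrated with a labelled K4 kissing-loop RNA reporter in RNA-MaP buffer (100 mM Tris pH 7.5, 80 mM KCl, 4 mM MgCl2), without ligand or with the indicated ligand. Median apparent KD per design.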

[1] = input ligand: theophylline 20 uM
[2] = input ligand: tryptophan 2.4 mM
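Also: bound reporter read as fluorescence of individual clusters on recovered sequencing chips by microscopy, with normalized cluster intensities fitted with a binding model.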

Sequence	apparent KD of K4 kissing-loop reporter (input ligand: FMN 200 uM) [nM]	apparent KD of K4 kissing-loop reporter (input ligand: arginine 13.2 mM) [nM]	apparent KD of K4 kissing-loop reporter (input ligand: none) [nM]	apparent KD of K4 kissing-loop reporter [1] [nM]	apparent KD of K4 kissing-loop reporter [2] [nM]
UAUUUAAAUAAAAUAAAAUAAAUUGCUGAUACCAGAGUCAAUUGACUCCCUUGGCAGCGGAUCGAGUGAUGUUCGUAAAAUUUAU [AK2.1 SS Theophylline A]	27.4	57.7	30.8	58.5	31.9
GGACGACAGGCGGCCGCCACUCAAAGCAGCCAGCGAGUGAUGUUCGUGGCGGAGUGAUGUUCCUAGAGGACCGGGUCUGCAGUUC [Same State Tryptophan B GF 18]	449	390	468	490	362
GCAUAUACGAGAAGGAGCGUGCAUGACGAAUUAAUCAUCGACCUUAGUGAUGUUAAGGACGCACAGGUAGGUCGCUCGUGUAUGC [#04 K4 Arginine B Same State]	380	322	347	345	354
AUAUUUAUUUAGUCACUUUUCAUAUUAUGUCAGGAUAUCGUAUUUUCGAGAAGGGACUCAUGCUAGUGAUGUUAGCUAUUUCUCA [JR_Nu3_ExcFMNA_Sub022]	104	170	141	162	111
UUUCGUCUCUGAGGAUAUCAGAGGAGAGUGAUGUUCUCCCAUAGCCCAGUGAUGUUGGAUGCUAUCUGAGAAGGCAGUGGGCGAA [Same State FMN B GF 13]	143	141	164	144	155
CCAUCGCUAUUCGAUACCAGCUACUUAGUGAUGUUAAGUUUUUAUCCACUGUAGGUGGAAAGCCCUUGGCAGCGAAUAGUGAUGG [Theophylline B K4 26]	442	357	474	234	417
CGUGAGGACCAGAGGUGAUGUAUAGUAUCGCGAGGACCGGUACGGCCGCCACUCGUGAAGAGAAAGGAGUGAUGUUCCGUAAUGG [Kazoo C10]	343	292	304	377	110
AUUUAUUACAGAAGGAGCGUGUAUUUAUAAUCAUUUAUCUUAGCGAGUGAUGUUCGCUUUACACAGGUAGGUCGCUGUUUAUUUA [JR_Nu_ExcArginiB_Sub027]	110	128	120	133	90.2
GUGGGCAUAGCAGGAUAUCCAUAUUAACAGGAGUCCUCGCCAGUGAUGUUGGAAAGGUACCGGAGUGGAGAAGGGCUCCUACGUA [Anbiratien]	594	782	813	757	515
GAUAUAGAGGCGGCCGCCACUAGUGAUGUUAGUGAUGUUAGAUAGAGAAUAGAACAGAGGUGGGAUAGGACCGGGCCAGAUAGAG [whbob_SS_Tryp_B_w34]	90.6	72.7	67.9	65.8	76
ACUACGAAGACGGCCGCCACUGAUAUUCGUAGAUCCAUCAUUACAUGAGUGAUGUUCAUGUAUAUCAGGACCGGGUCAAGAUGGU [KL-XTryp-B17 #analogue]	184	146	164	162	226
GCCGUACGCAUGGAUACCAGCUAUUAGAGUGAUGUUCUAUGGCCCUGCCAGAGUAGCUGUAGCCCUUGGCAGCCAUGCGUACGGC	148	119	130	144	140
ACGCUGGUGAAUAACACUAGCGAAUAAUUCCGAGGACCGGUACGGCCGCCACUCGGCUAACUGCGAGUGAUGUUCGAUAAUAAAA [Mat - Mod of OpenEnded 3 - D10]	78.5	158	103	156	57.5
UUCUACGUGCAAGGAUAUCCAUACGCUGCCCAGCGGGUAGCGAUAUAUGGAGUGAUGUUCCAUGUAGGAGAAGGUGCACUGUCCU [Atrea]	149	386	457	466	475
AACAGCAAUGCGGCCGCCACUUCGAGGUCAGUGAUGUUGACAGAAUUAAAUAAAGAUCCCAAGAGGAGGACCGGGCAGUGCUGUU [whbob_SS_Tryp_B_t24]	534	417	674	527	416
UUGCAAAAGUCGGCCGCCACUCCGGGCCCUAUAAAUGGGCGCAGUGAUGUUGCGGCUAGGCCUCUGAGGACCGGGACUUUGUAGC [Aenonlebe]	79	103	142	111	199
AAAGUUGAUGAGUUGGGUAUGUGUUCCGAAGGAGCGAGAAUUAUCUCAGGUAGGUCGCGGAACAUGAGUGAUGUUCAUGUAUAAA [KL-XArg-A7 #analogue]	345	436	365	423	340
CGCGUGGGUUUGAGAGGGUUUGUGCGAAGUGAGGAUAUUUAGGGAGAAAGAAGGCACUAUAAAAUAUAGUGAUGUUAUAUAAGGG [SSFMNA.K]	295	226	275	225	227
